Measurements reported in article PMC10397247.
Each block holds one binder with its values, some of them ahead of it.

Tests used:
APC1242-AA = target: T1, APC1242-AA; experiment: two-hybrid library CCmax;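 also: natural log of median RNA to DNA barcode read ratio; higher means stronger binding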
T1 chain: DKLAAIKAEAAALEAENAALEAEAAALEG

APC1916-AA = target: T2, APC1916-AA; experiment: two-hybrid library CCmax; conditions: mean of both orientations;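 also: natural log of median RNA to DNA barcode read ratio; higher means stronger binding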
T2 chain: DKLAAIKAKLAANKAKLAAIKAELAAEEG

APC1987-AA = target: T3, APC1987-AA; experiment: two-hybrid library CCmax; conditions: mean of both orientations;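 also: natural log of median RNA to DNA barcode read ratio; higher means stronger binding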
T3 chain: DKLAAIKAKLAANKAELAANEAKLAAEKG

APC222-AA = target: T4, APC222-AA; experiment: two-hybrid library CCmax; conditions: mean of both orientations;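 also: natural log of median RNA to DNA barcode read ratio; higher means stronger binding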
T4 chain: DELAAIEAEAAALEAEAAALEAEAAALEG

APC2257-AA = target: T5, APC2257-AA; experiment: two-hybrid library CCmax; conditions: mean of both orientations;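 also: natural log of median RNA to DNA barcode read ratio; higher means stronger binding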
T5 chain: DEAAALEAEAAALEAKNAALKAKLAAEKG

APC2375-AA = target: T6, APC2375-AA; experiment: two-hybrid library CCmax; conditions: mean of both orientations;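 also: natural log of median RNA to DNA barcode read ratio; higher means stronger binding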
T6 chain: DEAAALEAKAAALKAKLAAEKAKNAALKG

APC2474-AA = target: T7, APC2474-AA; experiment: two-hybrid library CCmax; conditions: mean of both orientations
T7 chain: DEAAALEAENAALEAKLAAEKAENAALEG

APC2543-AA = target: T8, APC2543-AA; experiment: two-hybrid library CCmax; conditions: mean of both orientations
T8 chain: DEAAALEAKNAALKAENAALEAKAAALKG

APC2556-AA = target: T9, APC2556-AA; experiment: two-hybrid library CCmax; conditions: mean of both orientations
T9 chain: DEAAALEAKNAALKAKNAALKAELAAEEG

APC2724-AA = target: T10, APC2724-AA; experiment: two-hybrid library CCmax; conditions: mean of both orientations
T10 chain: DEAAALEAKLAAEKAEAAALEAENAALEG

APC2811-AA = target: T11, APC2811-AA; experiment: two-hybrid library CCmax; conditions: mean of both orientations
T11 chain: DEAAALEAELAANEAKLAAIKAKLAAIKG

APC2981-AA = target: T12, APC2981-AA; experiment: two-hybrid library CCmax; conditions: mean of both orientations
T12 chain: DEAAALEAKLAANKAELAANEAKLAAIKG

APC3265-AA = target: T13, APC3265-AA; experiment: two-hybrid library CCmax; conditions: mean of both orientations
T13 chain: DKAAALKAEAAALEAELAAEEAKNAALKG

APC3323-AA = target: T14, APC3323-AA; experiment: two-hybrid library CCmax; conditions: mean of both orientations
T14 chain: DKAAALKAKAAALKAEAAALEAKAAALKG

APC3354-AA = target: T15, APC3354-AA; experiment: two-hybrid library CCmax; conditions: mean of both orientations
T15 chain: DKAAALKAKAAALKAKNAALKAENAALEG

APC3881-AA = target: T16, APC3881-AA; experiment: two-hybrid library CCmax; conditions: mean of both orientations
T16 chain: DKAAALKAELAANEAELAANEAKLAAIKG

APC4100-AA = target: T17, APC4100-AA; experiment: two-hybrid library CCmax; conditions: mean of both orientations
T17 chain: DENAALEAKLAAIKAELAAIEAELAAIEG

APC4336-AA = target: T18, APC4336-AA; experiment: two-hybrid library CCmax; conditions: mean of both orientations
T18 chain: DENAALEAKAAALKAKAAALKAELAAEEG

APC5009-AA = target: T19, APC5009-AA; experiment: two-hybrid library CCmax; conditions: mean of both orientations
T19 chain: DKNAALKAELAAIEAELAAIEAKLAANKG

APC542-AA = target: T20, APC542-AA; experiment: two-hybrid library CCmax; conditions: mean of both orientations
T20 chain: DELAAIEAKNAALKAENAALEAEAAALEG

APC5531-AA = target: T21, APC5531-AA; experiment: two-hybrid library CCmax; conditions: mean of both orientations
T21 chain: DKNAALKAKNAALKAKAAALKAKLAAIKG

APC6088-AA = target: T22, APC6088-AA; experiment: two-hybrid library CCmax; conditions: mean of both orientations
T22 chain: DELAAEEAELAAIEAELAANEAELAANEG

APC7524-AA = target: T23, APC7524-AA; experiment: two-hybrid library CCmax; conditions: mean of both orientations
T23 chain: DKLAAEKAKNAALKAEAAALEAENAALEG

APC8401-AA = target: T24, APC8401-AA; experiment: two-hybrid library CCmax; conditions: mean of both orientations
T24 chain: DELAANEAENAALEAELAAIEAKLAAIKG

APC8516-AA = target: T25, APC8516-AA; experiment: two-hybrid library CCmax; conditions: mean of both orientations
T25 chain: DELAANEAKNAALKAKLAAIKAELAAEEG

APC9141-AA = target: T26, APC9141-AA; experiment: two-hybrid library CCmax; conditions: mean of both orientations
T26 chain: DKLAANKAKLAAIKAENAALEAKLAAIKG

APC9182-AA = target: T27, APC9182-AA; experiment: two-hybrid library CCmax; conditions: mean of both orientations
T27 chain: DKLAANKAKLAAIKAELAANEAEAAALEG

APC9291-AA = target: T28, APC9291-AA; experiment: two-hybrid library CCmax; conditions: mean of both orientations
T28 chain: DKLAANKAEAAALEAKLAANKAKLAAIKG

APC9806-AA = target: T29, APC9806-AA; experiment: two-hybrid library CCmax; conditions: mean of both orientations
T29 chain: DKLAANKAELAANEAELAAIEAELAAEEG

P11 = target: T30, P11; experiment: two-hybrid library CC1
T30 chain: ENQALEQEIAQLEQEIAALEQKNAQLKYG

P12 = target: T31, P12; experiment: two-hybrid library CC1; conditions: mean of both orientations
T31 chain: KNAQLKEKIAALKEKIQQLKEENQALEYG

P3 = target: T32, P3; experiment: two-hybrid library CC1; conditions: mean of both orientations
T32 chain: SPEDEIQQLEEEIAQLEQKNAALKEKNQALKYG

P3mS = target: T33, P3mS; experiment: two-hybrid library CC1; conditions: mean of both orientations
T33 chain: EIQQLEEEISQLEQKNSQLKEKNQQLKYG

P4 = target: T34, P4; experiment: two-hybrid library CC1; conditions: mean of both orientations
T34 chain: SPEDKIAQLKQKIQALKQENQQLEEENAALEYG

P4mS = target: T35, P4mS; experiment: two-hybrid library CC1; conditions: mean of both orientations
T35 chain: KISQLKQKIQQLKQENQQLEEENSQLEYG

P5SC1 = target: T36, P5SC1; experiment: two-hybrid library CC1; conditions: mean of both orientations
T36 chain: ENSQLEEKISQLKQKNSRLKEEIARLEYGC

P5SC2 = target: T37, P5SC2; experiment: two-hybrid library CC1; conditions: mean of both orientations
T37 chain: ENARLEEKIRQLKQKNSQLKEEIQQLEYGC

P5 = target: T38, P5; experiment: two-hybrid library CC1; conditions: mean of both orientations
T38 chain: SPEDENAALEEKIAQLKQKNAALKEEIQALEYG

P5mS = target: T39, P5mS; experiment: two-hybrid library CC1; conditions: mean of both orientations
T39 chain: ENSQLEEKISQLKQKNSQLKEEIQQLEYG

P6SC1 = target: T40, P6SC1; experiment: two-hybrid library CC1; conditions: mean of both orientations
T40 chain: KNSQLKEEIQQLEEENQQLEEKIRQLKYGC

P6SC2 = target: T41, P6SC2; experiment: two-hybrid library CC1; conditions: mean of both orientations
T41 chain: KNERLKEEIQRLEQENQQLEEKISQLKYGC

P6 = target: T42, P6; experiment: two-hybrid library CC1; conditions: mean of both orientations
T42 chain: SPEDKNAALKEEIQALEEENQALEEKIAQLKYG

P6mS = target: T43, P6mS; experiment: two-hybrid library CC1; conditions: mean of both orientations
T43 chain: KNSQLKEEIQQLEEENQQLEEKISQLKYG

P7 = target: T44, P7; experiment: two-hybrid library CC1; conditions: mean of both orientations
T44 chain: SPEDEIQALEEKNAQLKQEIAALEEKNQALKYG

P7mS = target: T45, P7mS; experiment: two-hybrid library CC1; conditions: mean of both orientations
T45 chain: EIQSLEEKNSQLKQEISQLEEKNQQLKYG

P8 = target: T46, P8; experiment: two-hybrid library CC1; conditions: mean of both orientations
T46 chain: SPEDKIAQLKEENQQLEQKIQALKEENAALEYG

P8mS = target: T47, P8mS; experiment: two-hybrid library CC1; conditions: mean of both orientations
T47 chain: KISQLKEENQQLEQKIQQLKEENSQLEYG

P9 = target: T48, P9; experiment: two-hybrid library CC1; conditions: mean of both orientations
T48 chain: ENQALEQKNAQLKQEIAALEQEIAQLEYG

interaction score (APC1242-AA): -1.39
interaction score (APC1916-AA): -0.197
interaction score (APC1987-AA): -1.67
interaction score (APC222-AA): -1.71
interaction score (APC2257-AA): -1.45
interaction score (APC2375-AA): -1.54
interaction score (APC2474-AA): -1.53
interaction score (APC2543-AA): -1.38
interaction score (APC2556-AA): -1.73
interaction score (APC2724-AA): -1.96
interaction score (APC2811-AA): -1.73
interaction score (APC2981-AA): -1.87
interaction score (APC3265-AA): -1.56
interaction score (APC3323-AA): -1.85
interaction score (APC3354-AA): -1.74
interaction score (APC3881-AA): -1.81
interaction score (APC4100-AA): -1.76
interaction score (APC4336-AA): -2.21
interaction score (APC5009-AA): -1.74
interaction score (APC542-AA): -2.16
interaction score (APC5531-AA): -1.83
interaction score (APC6088-AA): -1.12
interaction score (APC7524-AA): -1.82
interaction score (APC8401-AA): -1.53
interaction score (APC8516-AA): -1.75
interaction score (APC9141-AA): -1.7
interaction score (APC9182-AA): -1.34
interaction score (APC9291-AA): -1.76
interaction score (APC9806-AA): -1.43
Binder: DKLAAIKAEAAALEAENAALEAEAAALEG [APC1242-AA]

Binder: ENQALEQEIAQLEQEIAALEQKNAQLKYG [P11]
interaction score (P11): -2.71
interaction score (P12): 0.313
interaction score (P3): -2.69
interaction score (P3mS): -2.8
interaction score (P4): -0.75
interaction score (P4mS): -1.07
interaction score (P5SC1): -2.59
interaction score (P5SC2): -2.41
interaction score (P5): -2.7
interaction score (P5mS): -2.74
interaction score (P6SC1): -2.75
interaction score (P6SC2): -2.64
interaction score (P6): -2.83
interaction score (P6mS): -2.82
interaction score (P7): -2.69
interaction score (P7mS): -2.62
interaction score (P8): -2.59
interaction score (P8mS): -2.69
interaction score (P9): -2.25
